From publication PMC4182932 (Current protocols in protein science / editorial board, …, 2014)

Biological target: the molecule itself
Test: AUC

B1: βB1-crystallin (natural protein, human, UniProt P53674 1-252, looked up)
chain: MSQAAKASASATVAVNPGPDTKGKGAPPAGTSPSPGTTLAPTTVPITSAKAAELPPGNYRLVVFELENFQGRRAEFSGECSNLADRGFDRVRSIIVSAGPWVAFEQSNFRGEMFILEKGEYPRWNTWSSSYRSDRLMSFRPIKMDAQEHKISLFEGANFKGNTIEIQGDDAPSLWVYGFSDRVGSVKVSSGTWVGYQYPGYRGYQYLLEPGDFRHWNEWGAFQPQMQSLRRLRDKQWHLEGSFPVLATEPPK
stoichiometry N: 2
